In publication PMC12262736:

Key:
[1] = target: LiaS (Enterococcus faecalis); experiment: MST
[2] = target: MadS (Enterococcus faecalis); experiment: MST

Row | Substance | Kd [1] | Kd [2]
1 | MadR (natural protein) | 5.02 µM | 8.08 µM
2 | LiaR (natural protein) | 2.42 µM | 25.7 µM
